Reference: US20030003502A1 (published 2003)

Target: T1, PhFc-Cε3/Cε41-222 (human, UniProt P01854 211-427, N-linked carbohydrate attached at N394 (NAG/MAN residues 694-699 in Table 1))
T1 construct: Fc fragment of human IgE (Cε3 and Cε4 domains); It is a dimer of two identical chains with an interchain disulfide near residue 329; Produced in Trichoplusia ni (Hi-5) insect cells; also called human IgE-Fc Cε3/Cε4 domains; IgE-Fc
Experiment: complex formation and co-crystallization, crystal form I
Protocol: The structure was determined by molecular replacement techniques as described in Methods. Manual model building was done with the program O¹⁸ and refinement carried out with CNS¹⁹. Current refinement statistics for the complex are shown in Table 3, with an overall R-free of 29.3% and R-cryst of 27.0% to 3.25 Å.
Human IgE-Fc Cε3/Cε4 domains and a carbohydrate mutant of the FcεRIα¹¹ were expressed in insect cells essentially as described for IgE-Fc Cε3/Cε4 in 60/189,403. Complexes of wt-Fc-Cε3/Cε4 and wt-FcεRIα produced only poorly diffracting crystals. Since the receptor is heavily glycosylated (˜33% carbohydrate by weight), and the carbohydrate sites are dispersed on the receptor surface, a subset of these attachment sites was removed to improve the protein crystallization. A previously-described carbohydrate mutant of the receptor¹⁷ lacking three of the seven wild type carbohydrate sites (residues 74, 135, and 140) located on both D1 and D2 in the receptor structure. The triple receptor mutant, FcεRIαΔ4-6 was subcloned into the pvl1392 baculovirus transfer vector and recombinant virus produced. The mutant receptor was active, expressed well and was purified by affinity chromatography similarly to the wt protein. […]

T1 sequence (P01854 other isoform, or with tags, fused parts or gaps limits assumed): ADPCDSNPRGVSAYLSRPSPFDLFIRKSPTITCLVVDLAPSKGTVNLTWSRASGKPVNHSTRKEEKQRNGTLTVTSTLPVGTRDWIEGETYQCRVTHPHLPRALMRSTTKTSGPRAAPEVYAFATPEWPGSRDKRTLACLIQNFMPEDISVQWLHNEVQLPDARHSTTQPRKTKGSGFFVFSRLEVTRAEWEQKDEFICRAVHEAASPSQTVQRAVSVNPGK

- binding result: binds
B1: PhFcεRIα1-176 (receptor)
chain: VPQKPKVSLNPPWNRIFKGENVTLTCNGNNFFEVSSTKWFHNGSLSEETNSSLNIVNAKFEDSGEYKCQHQQVNESEPVYLEVFSDWLLLQASAEVVMEGQPLFLRCHGWRNWDVYKVIYYKDGEALKYWYENHNISITNATVEDSGTYYCTGKVWQLDYESEPLNITVIKAPREK
modifications: N-linked carbohydrate (seven native attachment sites; about 33% carbohydrate by weight)
notes: also called hFcεRIα1-176 protein; wild type (wt) FcεRIα
